The results in this text go back to patent publication CN111171151A (FOSHAN CANTON BIOTECHNOLOGY CO LTD; UNIV JINAN, dated 2020).

Assay [1] addresses T1, EGFR-ECD 3 重组蛋白 (EGFR胞外段结构域3) (UniProt P00533 334-504, limits assumed).
T1 construct: domain: EGFR胞外段结构域3 (EGFR-ECD 3); Secreted from transiently transfected 293F cells (pCMV-EGFR-ECD3) and purified on a nickel column; also called EGFR胞外段的CD3区域片段; EGFR-ECD 3 纯化蛋白; not shown: purified on a nickel column, detected with anti
Description: ELISA, coated proteins 100 ng/well (EGFR-ECD3 against EGF, bFGF, Her2), anti-HA detection.

Assay [2] has as its target T1, EGFR-ECD 3 重组蛋白 (EGFR胞外段结构域3). Description: ELISA, coated EGFR-ECD3 100 ng/well, NbH3 from 40 μg/mL in 1:2 dilutions. Background: In an ELISA, binding on a coated surface is turned into a signal by an enzyme label.

Some results are limits rather than exact numbers.

B1: 抗EGFR纳米抗体 Nb H3 (VHH)
VHH: QVQLQESGGGSVQAGGSLNLSCAVSGYTGCKNGMSWYRQAPGKEREFVSGIDRDGSPSYADSVKGRFTISQDNAKNIVFLQMNSLRPEDTAMYYCATNPQRNIYGGSWCNYWGQGTQVTVSS
notes: From a Bactrian camel immunised with EGFR-ECD3; expressed in E. coli WK6 from the pComb-3X plasmid and purified on a nickel column; not shown: tags from the pComb-3X vector (purified on a nickel column, detected with anti-H)
Usually EC50 stands for the concentration at which the effect is half-maximal. Lower therefore signals a more potent agent. Consider B1, for which, in assay [1], the “ratio of binding (OD) against the other control proteins” value was above 2. This molecule also came in with an EC50 in assay [2] of 8.76 µg/mL.
